Measurements as given in patent publication US20210380703A1.

B1: 365_F03 (antibody, V domains shown)
VH: EVQLLESGGGLVQPGGSLRLSCAASGFTFDSYSMNWVRQAPGKGLEWVSSINYNGGYTSYADSVKGRFTISRDNSKNTLYLQMNSLRAEDTAVYYCARGANWHDTHLDYWGQGTLVTVSS
VL: DIQMTQSPSSLSASVGDRVTITCRASQSILSYLNWYQQKPGKAPKLLIYAATSRASGVPSRFSGSGSGTDFTLTISSLQPEDFATYYCQQSYDNPLTFGGGTKVEIK
B2: 367_B04 (antibody, V domains shown)
VH: EVQLLESGGGLVQPGGSLRLSCAASGFTFDSYSMNWVRQAPGKGLEWVSGINYNSGYKSYADSVKGRFTISRDNSKNTLYLQMNSLRAEDTAVYYCARGANWHDTHLDYWGQGTLVTVSS
VL: DIQMTQSPSSLSASVGDRVTITCRASQSILSYLNWYQQKPGKAPKLLIYAATSRASGVPSRFSGSGSGTDFTLTISSLQPEDFATYYCQQSYELPLTFGGGTKVEIK
B3: 367_A10 (antibody, V domains shown)
VH: EVQLLESGGGLVQPGGSLRLSCAASGFTFSSYGMNWVRQAPGKGLEWVAGINYNSGYTSYADSVKGRFTISRDNSKNTLYLQMNSLRAEDTAVYYCARGANWHDTHLDYWGQGTLVTVSS
VL: DIQMTQSPSSLSASVGDRVTITCRASQSIITYVNWYQQKPGKAPKLLIYAATSLASGVPSRFSGSGSGTDFTLTISSLQPEDFATYYCQQSYDLPLTFGGGTKVEIK
B4: 366_E08 (antibody, V domains shown)
VH: EVQLLESGGGLVQPGGSLRLSCAASGFTFSDYSMNWVRQAPGKGLEWVSNINYNGGYTSYADSVKGRFTISRDNSKNTLYLQMNSLRAEDTAVYYCARGANWHDTHLDYWGQGTLVTVSS
VL: DIQMTQSPSSLSASVGDRVTITCRASQSIVTYLNWYQQKPGKAPKLLIYAATSRHSGVPSRFSGSGSGTDFTLTISSLQPEDFATYYCQQSYSNPLTFGGGTKVEIK
B5: 366_F10 (antibody, V domains shown)
VH: EVQLLESGGGLVQPGGSLRLSCAASGFTFDSYSMNWVRQAPGKGLEWVAGINYNGGYTGYADSVKGRFTISRDNSKNTLYLQMNSLRAEDTAVYYCARAANWHDTHLDYWGQGTLVTVSS
VL: DIQMTQSPSSLSASVGDRVTITCRASQSIVSYLNWYQQKPGKAPKLVIYAATSRASGVPSRFSGSGSGTDFTLTISSLQPEDFATYYCQQSYDTPLTFGGGTKVEIK
B6: 367_C07 (antibody, V domains shown)
VH: EVQLLESGGGLVQPGGSLRLSCAASGFTFSSYSMNWVRQAPGKGLEWVSSINYNSGYTGYADSVKGRFTISRDNSKNTLYLQMNSLRAEDTAVYYCARGANWHDTHLDYWGQGTLVTVSS
VL: DIQMTQSPSSLSASVGDRVTITCRASQSILTYVNWYQQKPGKAPKLLIYAATSRASGVPSRFSGSGSGTDFTLTISSLQPEDFATYYCQQSYNLPLTFGGGTKVEIK
B7: 367_A03 (antibody, V domains shown)
VH: EVQLLESGGGLVQPGGSLRLSCAASGFTFDSYGMNWVRQAPGKGLEWVAGINYNGGYTSYADSVKGRFTISRDNSKNTLYLQMNSLRAEDTAVYYCARGANWHDTALDYWGQGTLVTVSS
VL: DIQMTQSPSSLSASVGDRVTITCRASQSILTYVNWYQQKPGKAPKLLIYATTSRHSGVPSRFSGSGSGTDFTLTISSLQPEDFATYYCQQSYDSPLTFGGGTKVEIK
B8: 365_G05 (antibody, V domains shown)
VH: EVQLLESGGGLVQPGGSLRLSCAASGFTFSSYGMNWVRQAPGKGLEWVSGINYNGGYKGYADSVKGRFTISRDNSKNTLYLQMNSLRAEDTAVYYCARGANWHDTALDYWGQGTLVTVSS
VL: DIQMTQSPSSLSASVGDRVTITCRASQSILSYLNWYQQKPGKAPKLVIYAATSLASGVPSRFSGSGSGTDFTLTISSLQPEDFATYYCQQSYENPLTFGGGTKVEIK
B9: 367_C10 (antibody, V domains shown)
VH: EVQLLESGGGLVQPGGSLRLSCAASGFTFDSYSMNWVRQAPGKGLEWVSGINYNGGYTSYADSVKGRFTISRDNSKNTLYLQMNSLRAEDTAVYYCARGANWHDTALDYWGQGTLVTVSS
VL: DIQMTQSPSSLSASVGDRVTITCRASQSIVSYVNWYQQKPGKAPKLLIYAVTSRASGVPSRFSGSGSGTDFTLTISSLQPEDFATYYCQQSYETPLTFGGGTKVEIK
B10: 366_D03 (antibody, V domains shown)
VH: EVQLLESGGGLVQPGGSLRLSCAASGFTFDSYGMHWVRQAPGKGLEWVSSINYNGGYTGYADSVKGRFTISRDNSKNTLYLQMNSLRAEDTAVYYCARAANWHDTHLDYWGQGTLVTVSS
VL: DIQMTQSPSSLSASVGDRVTITCRASQSILSYVNWYQQKPGKAPKLLIYAATSRASGVPSRFSGSGSGTDFTLTISSLQPEDFATYYCQQSYDLPLTFGGGTKVEIK
B11: 367_A08 (antibody, V domains shown)
VH: EVQLLESGGGLVQPGGSLRLSCAASGFTFDSYGMNWVRQAPGKGLEWVAGINYNGGYTSYADSVKGRFTISRDNSKNTLYLQMNSLRAEDTAVYYCARGANWHDTHLDYWGQGTLVTVSS
VL: DIQMTQSPSSLSASVGDRVTITCRASQSILTYLNWYQQKPGKAPKLLIYAVTSRASGVPSRFSGSGSGTDFTLTISSLQPEDFATYYCQQSYDSPLTFGGGTKVEIK
B12: 367_B12 (antibody, V domains shown)
VH: EVQLLESGGGLVQPGGSLRLSCAASGFTFSSYGMHWVRQAPGKGLEWVASINYNGGYKSYADSVKGRFTISRDNSKNTLYLQMNSLRAEDTAVYYCARGANWHDTHLDYWGQGTLVTVSS
VL: DIQMTQSPSSLSASVGDRVTITCRASQSILSYVNWYQQKPGKAPKLVIYAATSLASGVPSRFSGSGSGTDFTLTISSLQPEDFATYYCQQSYDTPLTFGGGTKVEIK
B13: 365_H07 (antibody, V domains shown)
VH: EVQLLESGGGLVQPGGSLRLSCAASGFTFDSYSMNWVRQAPGKGLEWVSGINYNGGYTSYADSVKGRFTISRDNSKNTLYLQMNSLRAEDTAVYYCARGANWHDTHLDYWGQGTLVTVSS
VL: DIQMTQSPSSLSASVGDRVTITCRASQSISTYVNWYQQKPGKAPKLLIYAATSRHSGVPSRFSGSGSGTDFTLTISSLQPEDFATYYCQQSYENPLTFGGGTKVEIK
B14: 366_B07 (antibody, V domains shown)
VH: EVQLLESGGGLVQPGGSLRLSCAASGFTFSDYGMNWVRQAPGKGLEWVSGINYNGGYTSYADSVKGRFTISRDNSKNTLYLQMNSLRAEDTAVYYCARGANWHDTHLDYWGQGTLVTVSS
VL: DIQMTQSPSSLSASVGDRVTITCRASQSIVSYLNWYQQKPGKAPKLVIYATTSRASGVPSRFSGSGSGTDFTLTISSLQPEDFATYYCQQSYNSPLTFGGGTKVEIK
B15: 367_A12 (antibody, V domains shown)
VH: EVQLLESGGGLVQPGGSLRLSCAASGFTFSSYGMNWVRQAPGKGLEWVSGINYNSGYTSYADSVKGRFTISRDNSKNTLYLQMNSLRAEDTAVYYCARGANWHDTHLDYWGQGTLVTVSS
VL: DIQMTQSPSSLSASVGDRVTITCRASQSILSYLNWYQQKPGKAPKLLIYAATSLHSGVPSRFSGSGSGTDFTLTISSLQPEDFATYYCQQSYNNPLTFGGGTKVEIK
B16: 366_A08 (antibody, V domains shown)
VH: EVQLLESGGGLVQPGGSLRLSCAASGFTFDDYSMNWVRQAPGKGLEWVSGINYNSGYKGYADSVKGRFTISRDNSKNTLYLQMNSLRAEDTAVYYCARGANWHDTHLDYWGQGTLVTVSS
VL: DIQMTQSPSSLSASVGDRVTITCRASQSIVSYVNWYQQKPGKAPKLVIYAATSRASGVPSRFSGSGSGTDFTLTISSLQPEDFATYYCQQSYNSPLTFGGGTKVEIK
B17: 365_G04 (antibody, V domains shown)
VH: EVQLLESGGGLVQPGGSLRLSCAASGFTFDSYSMNWVRQAPGKGLEWVAGINYNGGYTGYADSVKGRFTISRDNSKNTLYLQMNSLRAEDTAVYYCARGANWHDTHLDYWGQGTLVTVSS
VL: DIQMTQSPSSLSASVGDRVTITCRASQSIVSYVNWYQQKPGKAPKLVIYAATSLASGVPSRFSGSGSGTDFTLTISSLQPEDFATYYCQQSYDTPLTFGGGTKVEIK
B18: 366_D01 (antibody, V domains shown)
VH: EVQLLESGGGLVQPGGSLRLSCAASGFTFSSYGMHWVRQAPGKGLEWVSSINYNGGYTGYADSVKGRFTISRDNSKNTLYLQMNSLRAEDTAVYYCARAANWHDTHLDYWGQGTLVTVSS
VL: DIQMTQSPSSLSASVGDRVTITCRASQSILTYVNWYQQKPGKAPKLLIYAATSRASGVPSRFSGSGSGTDFTLTISSLQPEDFATYYCQQSYENPLTFGGGTKVEIK
B19: 366_B05 (antibody, V domains shown)
VH: EVQLLESGGGLVQPGGSLRLSCAASGFTFSDYSMNWVRQAPGKGLEWVSGINYNSGYKSYADSVKGRFTISRDNSKNTLYLQMNSLRAEDTAVYYCARGANWHDTALDYWGQGTLVTVSS
VL: DIQMTQSPSSLSASVGDRVTITCRASQSISSYLNWYQQKPGKAPKLVIYAVTSRASGVPSRFSGSGSGTDFTLTISSLQPEDFATYYCQQSYELPLTFGGGTKVEIK
B20: 366_F02 (antibody, V domains shown)
VH: EVQLLESGGGLVQPGGSLRLSCAASGFTFSSYGMNWVRQAPGKGLEWVSGINYNSGYTGYADSVKGRFTISRDNSKNTLYLQMNSLRAEDTAVYYCARGANWHDTHLDYWGQGTLVTVSS
VL: DIQMTQSPSSLSASVGDRVTITCRASQSILTYLNWYQQKPGKAPKLVIYAATSRHSGVPSRFSGSGSGTDFTLTISSLQPEDFATYYCQQSYDNPLTFGGGTKVEIK
B21: 367_A06 (antibody, V domains shown)
VH: EVQLLESGGGLVQPGGSLRLSCAASGFTFDSYGMNWVRQAPGKGLEWVASINYNGGYKGYADSVKGRFTISRDNSKNTLYLQMNSLRAEDTAVYYCARGANWHDTHLDYWGQGTLVTVSS
VL: DIQMTQSPSSLSASVGDRVTITCRASQSILSYVNWYQQKPGKAPKLLIYAATSRHSGVPSRFSGSGSGTDFTLTISSLQPEDFATYYCQQSYDTPLTFGGGTKVEIK
B22: 365_G09 (antibody, V domains shown)
VH: EVQLLESGGGLVQPGGSLRLSCAASGFTFSSYSMNWVRQAPGKGLEWVSGINYNGGYKSYADSVKGRFTISRDNSKNTLYLQMNSLRAEDTAVYYCARGANWHDTHLDYWGQGTLVTVSS
VL: DIQMTQSPSSLSASVGDRVTITCRASQSIITYLNWYQQKPGKAPKLVIYAATSRASGVPSRFSGSGSGTDFTLTISSLQPEDFATYYCQQSYNSPLTFGGGTKVEIK

These binders were tested against human Fc (human) (assay: ELISA, negative control).
For B1, the optical density was 0.347 OD. Work on B2 yielded an optical density of 0.265 OD. B3 gave an optical density of 0.315 OD. With B4 the optical density was 0.272 OD. B5 gave an optical density of 0.28 OD. B6 was tested, and the optical density was 0.387 OD. With B7 the optical density was 0.347 OD. B8 was tested, and the optical density was 0.319 OD. With B9 the optical density was 0.233 OD. B10 showed an optical density of 0.318 OD. B11 showed an optical density of 0.252 OD. In the case of B12, the optical density is reported as 0.414 OD. B13 showed an optical density of 0.33 OD. B14 was tested, and the optical density was 0.215 OD. B15 showed an optical density of 0.39 OD. B16 was tested, and the optical density was 0.243 OD. Work on B17 yielded an optical density of 0.295 OD. Binder B18 has an optical density of 0.374 OD. Work on B19 yielded an optical density of 0.24 OD. B20 was tested, and the optical density was 0.371 OD. With B21 the optical density was 0.378 OD. B22 was tested, and the optical density was 0.288 OD.
